# Test results reported in the supplement of paper PMC9112550, “Optimization of the antimicrobial peptide Bac7 by deep mutational scanning” (BMC Biology, 2022).
# Tested on: Escherichia coli TOP10
# Assay: shrunken log2 fold change of peptide-encoding DNA abundance (4.5 h post-induction vs induction); higher = less antimicrobial activity (less host growth inhibition)
# Conditions: time post-induction: 4.5 h; library: site-saturation at positions 5, 18, 19, 20
# 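Also: peptides expressed intracellularly from a pBAD plasmid library in pooled LB shake-flask culture, induced with 0.3% L-arabinose, DNA abundance read by NGS, three biological replicates, DESeq2 with apeglm shrinkage.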
row,Sequence,shrunken log2 fold change
1,RRIRLRPPRLPRPRPRPVQMPRP,3
2,RRIRNRPPRLPRPRPRPNTLPRP,-0.788
3,RRIRMRPPRLPRPRPRPSVSPRP,-0.35
4,RRIRCRPPRLPRPRPRPGRQPRP,0.285
5,RRIRFRPPRLPRPRPRPPAGPRP,0.727
6,RRIRTRPPRLPRPRPRPQCCPRP,-0.0803
7,RRIRKRPPRLPRPRPRPRTAPRP,0.843
8,RRIRTRPPRLPRPRPRPAQWPRP,0.0699
9,RRIRHRPPRLPRPRPRPDALPRP,0.227
10,RRIRQRPPRLPRPRPRPPHRPRP,0.445
11,RRIRQRPPRLPRPRPRPSMTPRP,-0.285
12,RRIRKRPPRLPRPRPRPAHNPRP,0.473
13,RRIRFRPPRLPRPRPRPHMNPRP,-0.774
14,RRIRVRPPRLPRPRPRPMSAPRP,0.262
15,RRIRCRPPRLPRPRPRPSLRPRP,-0.305
16,RRIRCRPPRLPRPRPRPHKHPRP,-0.58
17,RRIRNRPPRLPRPRPRPDKWPRP,-0.258
18,RRIRWRPPRLPRPRPRPHPNPRP,-0.0793
19,RRIRDRPPRLPRPRPRPLRPPRP,1.15
20,RRIRFRPPRLPRPRPRPYLLPRP,-1.11
21,RRIRERPPRLPRPRPRPNQQPRP,-0.112
22,RRIRARPPRLPRPRPRPHNFPRP,-0.108

row,Sequence,shrunken log2 fold change
1,RRIRSRPPRLPRPRPRPDAKPRP,0.0687
2,RRIRQRPPRLPRPRPRPWQVPRP,-0.154
3,RRIRVRPPRLPRPRPRPELHPRP,0.133
4,RRIRRRPPRLPRPRPRPETAPRP,0.658
5,RRIRCRPPRLPRPRPRPIMGPRP,0.00854
6,RRIRWRPPRLPRPRPRPLMCPRP,0.117
7,RRIRWRPPRLPRPRPRPFSEPRP,-0.186
8,RRIRYRPPRLPRPRPRPYVSPRP,-0.0075
9,RRIRWRPPRLPRPRPRPENVPRP,0.0417
10,RRIRDRPPRLPRPRPRPLLKPRP,0.437
11,RRIRWRPPRLPRPRPRPQICPRP,-0.0447
12,RRIRLRPPRLPRPRPRPPSHPRP,0.0809
13,RRIRQRPPRLPRPRPRPWIEPRP,-0.0606
14,RRIRVRPPRLPRPRPRPRRLPRP,0.135
15,RRIRWRPPRLPRPRPRPIDFPRP,-3.4e-05
16,RRIRVRPPRLPRPRPRPHKGPRP,-0.0569
17,RRIRCRPPRLPRPRPRPLDIPRP,-0.422
18,RRIRPRPPRLPRPRPRPMMSPRP,0.081
19,RRIRERPPRLPRPRPRPVTQPRP,-0.282
20,RRIRVRPPRLPRPRPRPLMCPRP,-0.268
21,RRIRWRPPRLPRPRPRPHYHPRP,-0.506
22,RRIRTRPPRLPRPRPRPDITPRP,-0.236

row,Sequence,shrunken log2 fold change
1,RRIRQRPPRLPRPRPRPNYTPRP,-0.207
2,RRIRMRPPRLPRPRPRPATSPRP,0.654
3,RRIRSRPPRLPRPRPRPFFWPRP,0.485
4,RRIRPRPPRLPRPRPRPLPKPRP,0.216
5,RRIRSRPPRLPRPRPRPHCNPRP,-0.36
6,RRIRSRPPRLPRPRPRPAINPRP,-0.131
7,RRIRKRPPRLPRPRPRPKKNPRP,0.555
8,RRIRIRPPRLPRPRPRPWGAPRP,0.0191
9,RRIRYRPPRLPRPRPRPCYIPRP,-0.189
10,RRIRWRPPRLPRPRPRPCQWPRP,0.0226
11,RRIRLRPPRLPRPRPRPGVWPRP,0.401
12,RRIRFRPPRLPRPRPRPIIEPRP,-0.747
13,RRIRRRPPRLPRPRPRPEIIPRP,0.0119
14,RRIRLRPPRLPRPRPRPGRWPRP,0.411
15,RRIRARPPRLPRPRPRPFSMPRP,-0.215
16,RRIRGRPPRLPRPRPRPFDTPRP,0.151
17,RRIRERPPRLPRPRPRPMKYPRP,0.0847
18,RRIRYRPPRLPRPRPRPMRFPRP,0.0781
19,RRIRWRPPRLPRPRPRPCRFPRP,0.0225
20,RRIRCRPPRLPRPRPRPLNDPRP,0.0553
21,RRIRGRPPRLPRPRPRPVDIPRP,0.183
22,RRIRNRPPRLPRPRPRPAEGPRP,0.0922

row,Sequence,shrunken log2 fold change
1,RRIRLRPPRLPRPRPRPAWFPRP,0.103
2,RRIRMRPPRLPRPRPRPEQHPRP,1.06
3,RRIRHRPPRLPRPRPRPAFGPRP,0.105
4,RRIRRRPPRLPRPRPRPTWDPRP,0.19
5,RRIRTRPPRLPRPRPRPPQCPRP,0.0145
6,RRIRCRPPRLPRPRPRPKFRPRP,-0.375
7,RRIRPRPPRLPRPRPRPACPPRP,0.147
8,RRIRLRPPRLPRPRPRPCYHPRP,-0.569
9,RRIRHRPPRLPRPRPRPEYAPRP,0.0953
10,RRIRVRPPRLPRPRPRPCLMPRP,-0.178
11,RRIRYRPPRLPRPRPRPLHMPRP,-0.116
12,RRIRIRPPRLPRPRPRPWEDPRP,-0.202
13,RRIRSRPPRLPRPRPRPKQWPRP,0.474
14,RRIRVRPPRLPRPRPRPYDMPRP,-0.382
15,RRIRHRPPRLPRPRPRPRKTPRP,0.00946
16,RRIRNRPPRLPRPRPRPCNYPRP,-0.164
17,RRIRVRPPRLPRPRPRPDHSPRP,-0.252
18,RRIRMRPPRLPRPRPRPHAEPRP,2.8
19,RRIRVRPPRLPRPRPRPVKYPRP,0.228
20,RRIRGRPPRLPRPRPRPVDDPRP,0.882
21,RRIRKRPPRLPRPRPRPSRNPRP,-0.0207
22,RRIRRRPPRLPRPRPRPVTRPRP,0.169

row,Sequence,shrunken log2 fold change
1,RRIRYRPPRLPRPRPRPCFCPRP,-0.565
2,RRIRSRPPRLPRPRPRPMVKPRP,-0.0162
3,RRIRERPPRLPRPRPRPQDYPRP,-0.091
4,RRIRIRPPRLPRPRPRPCWWPRP,0.082
5,RRIRHRPPRLPRPRPRPFSHPRP,-0.254
6,RRIRLRPPRLPRPRPRPKMMPRP,-0.167
7,RRIRIRPPRLPRPRPRPFDMPRP,-0.142
8,RRIRARPPRLPRPRPRPNLVPRP,-0.0779
9,RRIRSRPPRLPRPRPRPWVDPRP,-0.0314
10,RRIRVRPPRLPRPRPRPGQAPRP,-0.0106
11,RRIRWRPPRLPRPRPRPIHDPRP,-0.118
12,RRIRKRPPRLPRPRPRPQSSPRP,-0.0228
13,RRIRPRPPRLPRPRPRPKRKPRP,0.238
14,RRIRYRPPRLPRPRPRPQIYPRP,-0.132
15,RRIRHRPPRLPRPRPRPDYFPRP,0.0294
16,RRIRHRPPRLPRPRPRPQESPRP,0.00355
17,RRIRERPPRLPRPRPRPQALPRP,-0.378
18,RRIRFRPPRLPRPRPRPVIMPRP,-0.297
19,RRIRWRPPRLPRPRPRPKMDPRP,0.135
20,RRIRNRPPRLPRPRPRPCPCPRP,-0.0945
21,RRIRQRPPRLPRPRPRPCLVPRP,-0.252
